Laboratory results reported in patent US20120164670A1, “METHODS AND KITS FOR MEASURING ENZYME ACTIVITY” (President and Fellows of Harvard College, priority 2009, published 2012).

Substrate: CC(=O)NCCCC[C@H](NC(=O)[C@H](CCCNC(=N)N)NC(=O)[C@H](C)NC(=O)[C@@H](N)[C@@H](C)O)C(=O)N[C@@H](CO)C(=O)N[C@H](C(=O)NCC(=O)O)[C@@H](C)O
Assay: Sirtuin assay kit (PNC1-OPT) with hSIRT1 enzyme
Format: biochemical, human
Details: other: kit protocol, Experiment 2 mastermix; pH 8.0; 37.0 °C
Protocol: Kit contents are generally stored at −20° C. Modifications or variations in volumes or amounts of components described below are compatible with kits and assays described herein. • 1) Assay Buffer: 2 tubes with 1 mL each of 10× Assay Buffer. Dilute to 1× with ddH20 prior to use. • 2) Non-tagged Peptide Substrate: 1 tube with 140 uL of 5 mM H3K9ac substrate (TARK(ac)STG)) (SEQ ID NO:23). This is a sample substrate only; any substrate may be used in this assay. • 3) β-NAD: a) 1 tube with 450 uL of 10 mM B-NAD, and b) 1 tube with 50 uL of 100 mM B-NAD. In some instances, it is preferable to keep β-NAD in concentrated aliquot form, and dilute it prior to use. • 4) hSIRT1 Enzyme: 1 tube with 400 uL of 1.1 ug/uL full-length human SIRT1 enzyme. • 5) yPNC1 Enzyme: 1 tube with 200 uL of 2 ug/uL yeast PNC1 enzyme • 6) Developing Reagent: 2 vials with 10 mL each 1× Developer (10 mM OPT/10 mM DTT in 100% EtOH). Minimize exposure to light as outlined in the procedure. […]
In some instances, when adding the OPT Developer it is advisable to work in a dark or dimly lit setting. […] Once covered, ambient lighting may be restored. • d) Read the samples. Samples may be transferred to a 96-well plate for reading (do this under dim light). Read the fluorescence on a fluorometer with filters set to excitation ˜420 nm, and emission ˜460 nm. […]

B1: full-length human SIRT1 enzyme (Homo sapiens) (protein)
chain: MADEAALALQPGGSPSAAGADREAASSPAGEPLRKRPRRDGPGLERSPGEPGGAAPEREVPAAARGCPGAAAAALWREAEAEAAAAGGEQEAQATAAAGEGDNGPGLQGPSREPPLADNLYDEDDDDEGEEEEEAAAAAIGYRDNLLFGDEIITNGFHSCESDEEDRASHASSSDWTPRPRIGPYTFVQQHLMIGTDPRTILKDLLPETIPPPELDDMTLWQIVINILSEPPKRKKRKDINTIEDAVKLLQECKKIIVLTGAGVSVSCGIPDFRSRDGIYARLAVDFPDLPDPQAMFDIEYFRKDPRPFFKFAKEIYPGQFQPSLCHKFIALSDKEGKLLRNYTQNIDTLEQVAGIQRIIQCHGSFATASCLICKYKVDCEAVRGDIFNQVVPRCPRCPADEPLAIMKPEIVFFGENLPEQFHRAMKYDKDEVDLLIVIGSSLKVRPVALIPSSIPHEVPQILINREPLPHLHFDVELLGDCDVIINELCHRLGGEYAKLCCNPVKLSEITEKPPRTQKELAYLSELPPTPLHVSEDSSSPERTSPPDSSVIVTLLDQAAKSNDDLDVSESKGCMEEKPQEVQTSRNVESIAEQMENPDLKNVGSSTGEKNERTSVAGTVRKCWPNRVAKEQISRRLDGNQYLFLPPNRYIFHGAEVYSDSEDDVLSSSSCGSNSDSGTCQSPSLEEPMEDESEIEEFYNGLEDEPDVPERAGGAGFGTDGDDQEAINEAISVKQEVTDMNYPSNKS
notes: 1.1 ug/uL full-length human SIRT1 enzyme
Q: Which Km does the source give for B1 here?
A: 50 µM
